The target in the series is GST-p53 (UniProt P04637). The experiment in a line: fluorescence polarization. As to conditions: FP: 4 nM FAM duplex, 100 mM NaCl, 10 mM Tris-HCl pH 7.5, 10% glycerol, 5 mM DTT, 0.2 mg/mL BSA, room temperature; pull-down: 2 ug duplex with lysate, 90 min …. (In fluorescence polarisation assays a small probe gives low polarisation when free and higher when bound to something large.)
Chain of GST-p53 (P04637 whole entry): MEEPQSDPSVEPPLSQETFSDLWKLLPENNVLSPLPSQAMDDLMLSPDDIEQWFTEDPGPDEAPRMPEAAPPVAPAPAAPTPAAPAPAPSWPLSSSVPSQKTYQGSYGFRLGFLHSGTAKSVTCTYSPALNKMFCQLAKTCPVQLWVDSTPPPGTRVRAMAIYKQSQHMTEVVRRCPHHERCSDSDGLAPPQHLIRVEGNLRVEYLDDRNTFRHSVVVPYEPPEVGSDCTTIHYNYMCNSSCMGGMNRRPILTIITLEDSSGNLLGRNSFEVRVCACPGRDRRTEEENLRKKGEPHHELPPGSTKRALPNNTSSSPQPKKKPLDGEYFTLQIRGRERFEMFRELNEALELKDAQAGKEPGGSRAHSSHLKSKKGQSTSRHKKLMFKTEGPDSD

As a reminder, the Kd is the constant that tells how readily two partners part at equilibrium. A lower Kd goes with higher affinity. In the case of “CGCGCCTGCAAGTCCTGACTTGTCCGCGGC (double strand) [PUMA promoter duplex, FAM]”, the Kd worked out at 29.6 nM.

(Values after publication PMC4226670.)
